Assay results reported in patent US20150344570A1 (published 2015).
Values belong to the binder of their own block, whether it stands above or below them.

Molecular target: T1, FcγRIa (human, UniProt P12314 16-292)
T1 construct: extracellular domain; also called FcgRI; 1a
Assay: SPR (Biacore); He Ab relative to HeCon Ab = 100
Protocol: Analysis of interaction between objective antibody and the FcγR was carried out using Biacore T100 (GE Healthcare). HBS-EP+ (GE Healthcare) was used as the running buffer, and the measurement temperature was set to 25° C. Chips produced by immobilizing the antigen peptide by the amine coupling method to a Series S Sencor Chip CM5 (GE Healthcare), or alternatively, chips produced by allowing preliminarily biotinylated antigen peptides to interact with and immobilize onto a Series S Sensor Chip SA (certified) (GE Healthcare) were used. Antibodies of interest were captured onto an antigen peptide-immobilized chip, and allowed to interact to each FcγR diluted with running buffer. To regenerate and repeatedly use the chip, the antibodies captured on the chip were washed off by reacting 10 mM glycine-HCl, pH 1.5.

T1 sequence (P12314 16-292): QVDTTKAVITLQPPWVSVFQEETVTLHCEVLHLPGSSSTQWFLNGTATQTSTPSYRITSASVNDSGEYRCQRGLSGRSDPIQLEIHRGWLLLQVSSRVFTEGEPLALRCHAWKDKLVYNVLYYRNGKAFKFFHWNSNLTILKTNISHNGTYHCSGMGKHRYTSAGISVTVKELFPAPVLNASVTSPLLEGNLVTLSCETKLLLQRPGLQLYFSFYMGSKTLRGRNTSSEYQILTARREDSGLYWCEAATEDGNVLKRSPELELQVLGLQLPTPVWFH

B1: GpH7-A5/GpH7-B3 variant E333_13S/GpL16-k0 (antibody, human IgG1, kappa)
heavy 1: not shown
heavy 2: not shown
light: DIVMTQSPLSLPVTPGEPASISCQASESLVHSNRNTYLHWYLQKPGQSPQLLIYKVSNRFSGVPDRFSGSGSGTDFTLKISRVEAEDVGVYYCSQNTHVPPTFGQGTKVEIERTVAAPSVFIFPPSDEQLKSGTASVVCLLNNFYPREAKVQWKVDNALQSGNSQESVTEQDSKDSTYSLSSTLTLSKADYEKHKVYACEVTHQGLSSPVTKSFNRGEC
notes: also called He Ab E333_13S
He/Con_1a: 103 % of control

B3: GpH7-A5/GpH7-B3 variant E333_15Y/GpL16-k0 (antibody, human IgG1, kappa)
heavy 1: not shown
heavy 2: not shown
light: B1 light
notes: also called He Ab E333_15Y
He/Con_1a: 101 % of control

B5: GpH7-A5/GpH7-B3 variant K326_12R/GpL16-k0 (antibody, human IgG1, kappa)
heavy 1: not shown
heavy 2: not shown
light: B1 light
notes: also called He Ab K326_12R
He/Con_1a: 100 % of control

B7: GpH7-A5/GpH7-B3 variant I336_18N/GpL16-k0 (antibody, human IgG1, kappa)
heavy 1: not shown
heavy 2: not shown
light: B1 light
notes: also called He Ab I336_18N
He/Con_1a: 108 % of control

B9: GpH7-A5/GpH7-B3 variant H268_07I/GpL16-k0 (antibody, human IgG1, kappa)
heavy 1: not shown
heavy 2: not shown
light: B1 light
notes: also called He Ab H268_07I
He/Con_1a: 108 % of control

B12: GpH7-A5/GpH7-B3 variant I336_01G/GpL16-k0 (antibody, human IgG1, kappa)
heavy 1: not shown
heavy 2: not shown
light: B1 light
notes: also called He Ab I336_01G
He/Con_1a: 109 % of control

B14: GpH7-A5/GpH7-B3 variant H268_05P/GpL16-k0 (antibody, human IgG1, kappa)
heavy 1: not shown
heavy 2: not shown
light: B1 light
notes: also called He Ab H268_05P
He/Con_1a: 109 % of control

B17: GpH7-A5/GpH7-B3 variant E333_16H/GpL16-k0 (antibody, human IgG1, kappa)
heavy 1: not shown
heavy 2: not shown
light: B1 light
notes: also called He Ab E333_16H
He/Con_1a: 101 % of control

B19: GpH7-A5/GpH7-B3 variant H268_08L/GpL16-k0 (antibody, human IgG1, kappa)
heavy 1: not shown
heavy 2: not shown
light: B1 light
notes: also called He Ab H268_08L
He/Con_1a: 107 % of control

B20: GpH7-A5/GpH7-B3 variant I336_03V/GpL16-k0 (antibody, human IgG1, kappa)
heavy 1: not shown
heavy 2: not shown
light: B1 light
notes: also called He Ab I336_03V
He/Con_1a: 105 % of control

B24: GpH7-A5/GpH7-B3 variant G236_02A/GpL16-k0 (antibody, human IgG1, kappa)
heavy 1: not shown
heavy 2: not shown
light: B1 light
notes: also called He Ab G236_02A
He/Con_1a: 100 % of control

B26: GpH7-A5/GpH7-B3 variant I332_12R/GpL16-k0 (antibody, human IgG1, kappa)
heavy 1: not shown
heavy 2: not shown
light: B1 light
notes: also called He Ab I332_12R
He/Con_1a: 100 % of control

B31: GpH7-A5/GpH7-B3 variant H268_14T/GpL16-k0 (antibody, human IgG1, kappa)
heavy 1: not shown
heavy 2: not shown
light: B1 light
notes: also called He Ab H268_14T
He/Con_1a: 112 % of control

B34: GpH7-A5/GpH7-B3 variant H268_02A/GpL16-k0 (antibody, human IgG1, kappa)
heavy 1: not shown
heavy 2: not shown
light: B1 light
notes: also called He Ab H268_02A
He/Con_1a: 109 % of control

B37: GpH7-A5/GpH7-B3 variant I336_06M/GpL16-k0 (antibody, human IgG1, kappa)
heavy 1: not shown
heavy 2: not shown
light: B1 light
notes: also called He Ab I336_06M
He/Con_1a: 108 % of control

B38: GpH7-A5/GpH7-B3 variant I336_02A/GpL16-k0 (antibody, human IgG1, kappa)
heavy 1: not shown
heavy 2: not shown
light: B1 light
notes: also called He Ab I336_02A
He/Con_1a: 106 % of control

B42: GpH7-A5/GpH7-B3 variant E333_14T/GpL16-k0 (antibody, human IgG1, kappa)
heavy 1: not shown
heavy 2: not shown
light: B1 light
notes: also called He Ab E333_14T
He/Con_1a: 102 % of control

B43: GpH7-A5/GpH7-B3 variant H268_12R/GpL16-k0 (antibody, human IgG1, kappa)
heavy 1: not shown
heavy 2: not shown
light: B1 light
notes: also called He Ab H268_12R
He/Con_1a: 106 % of control

B44: GpH7-A5/GpH7-B3 variant I336_04F/GpL16-k0 (antibody, human IgG1, kappa)
heavy 1: not shown
heavy 2: not shown
light: B1 light
notes: also called He Ab I336_04F
He/Con_1a: 106 % of control

B48: GpH7-A5/GpH7-B3 variant H268_20W/GpL16-k0 (antibody, human IgG1, kappa)
heavy 1: not shown
heavy 2: not shown
light: B1 light
notes: also called He Ab H268_20W
He/Con_1a: 107 % of control

B53: GpH7-A5/GpH7-B3 variant I336_10E/GpL16-k0 (antibody, human IgG1, kappa)
heavy 1: not shown
heavy 2: not shown
light: B1 light
notes: also called He Ab I336_10E
He/Con_1a: 108 % of control

B54: GpH7-A5/GpH7-B3 variant G236_20W/GpL16-k0 (antibody, human IgG1, kappa)
heavy 1: not shown
heavy 2: not shown
light: B1 light
notes: also called He Ab G236_20W
He/Con_1a: 105 % of control

More lines, now with the values ahead:

He/Con_1a: 104 % of control
B2: GpH7-A5/GpH7-B3 variant L234_06M/GpL16-k0 (antibody, human IgG1, kappa)
heavy 1: not shown
heavy 2: not shown
light: B1 light
notes: also called He Ab L234_06M

He/Con_1a: 104 % of control
B4: GpH7-A5/GpH7-B3 variant P271_02A/GpL16-k0 (antibody, human IgG1, kappa)
heavy 1: not shown
heavy 2: not shown
light: B1 light
notes: also called He Ab P271_02A

He/Con_1a: 100 % of control
B6: GpH7-A5/GpH7-B3 variant P238_03V/GpL16-k0 (antibody, human IgG1, kappa)
heavy 1: not shown
heavy 2: not shown
light: B1 light
notes: also called He Ab P238_03V

He/Con_1a: 106 % of control
B8: GpH7-A5/GpH7-B3 variant K326_15Y/GpL16-k0 (antibody, human IgG1, kappa)
heavy 1: not shown
heavy 2: not shown
light: B1 light
notes: also called He Ab K326_15Y

He/Con_1a: 101 % of control
B10: GpH7-A5/GpH7-B3 variant P329_01G/GpL16-k0 (antibody, human IgG1, kappa)
heavy 1: not shown
heavy 2: not shown
light: B1 light
notes: also called He Ab P329_01G

He/Con_1a: 101 % of control
B11: GpH7-A5/GpH7-B3 variant P238_04F/GpL16-k0 (antibody, human IgG1, kappa)
heavy 1: not shown
heavy 2: not shown
light: B1 light
notes: also called He Ab P238_04F

He/Con_1a: 105 % of control
B13: GpH7-A5/GpH7-B3 variant K334_06M/GpL16-k0 (antibody, human IgG1, kappa)
heavy 1: not shown
heavy 2: not shown
light: B1 light
notes: also called He Ab K334_06M

He/Con_1a: 101 % of control
B15: GpH7-A5/GpH7-B3 variant P238_15Y/GpL16-k0 (antibody, human IgG1, kappa)
heavy 1: not shown
heavy 2: not shown
light: B1 light
notes: also called He Ab P238_15Y

He/Con_1a: 102 % of control
B16: GpH7-A5/GpH7-B3 variant P271_14T/GpL16-k0 (antibody, human IgG1, kappa)
heavy 1: not shown
heavy 2: not shown
light: B1 light
notes: also called He Ab P271_14T

He/Con_1a: 102 % of control
B18: GpH7-A5/GpH7-B3 variant P238_10E/GpL16-k0 (antibody, human IgG1, kappa)
heavy 1: not shown
heavy 2: not shown
light: B1 light
notes: also called He Ab P238_10E

He/Con_1a: 105 % of control
B21: GpH7-A5/GpH7-B3 variant K326_18N/GpL16-k0 (antibody, human IgG1, kappa)
heavy 1: not shown
heavy 2: not shown
light: B1 light
notes: also called He Ab K326_18N

He/Con_1a: 101 % of control
B22: GpH7-A5/GpH7-B3 variant P238_08L/GpL16-k0 (antibody, human IgG1, kappa)
heavy 1: not shown
heavy 2: not shown
light: B1 light
notes: also called He Ab P238_08L

He/Con_1a: 100 % of control
B23: GpH7-A5/GpH7-B3 variant L234_10E/GpL16-k0 (antibody, human IgG1, kappa)
heavy 1: not shown
heavy 2: not shown
light: B1 light
notes: also called He Ab L234_10E

He/Con_1a: 101 % of control
B25: GpH7-A5/GpH7-B3 variant L328_03V/GpL16-k0 (antibody, human IgG1, kappa)
heavy 1: not shown
heavy 2: not shown
light: B1 light
notes: also called He Ab L328_03V

He/Con_1a: 100 % of control
B27: GpH7-A5/GpH7-B3 variant L328_14T/GpL16-k0 (antibody, human IgG1, kappa)
heavy 1: not shown
heavy 2: not shown
light: B1 light
notes: also called He Ab L328_14T

He/Con_1a: 104 % of control
B28: GpH7-A5/GpH7-B3 variant L234_03V/GpL16-k0 (antibody, human IgG1, kappa)
heavy 1: not shown
heavy 2: not shown
light: B1 light
notes: also called He Ab L234_03V

He/Con_1a: 103 % of control
B29: GpH7-A5/GpH7-B3 variant L234_07I/GpL16-k0 (antibody, human IgG1, kappa)
heavy 1: not shown
heavy 2: not shown
light: B1 light
notes: also called He Ab L234_07I

He/Con_1a: 103 % of control
B30: GpH7-A5/GpH7-B3 variant L328_20W/GpL16-k0 (antibody, human IgG1, kappa)
heavy 1: not shown
heavy 2: not shown
light: B1 light
notes: also called He Ab L328_20W

He/Con_1a: 110 % of control
B32: GpH7-A5/GpH7-B3 variant K334_10E/GpL16-k0 (antibody, human IgG1, kappa)
heavy 1: not shown
heavy 2: not shown
light: B1 light
notes: also called He Ab K334_10E

He/Con_1a: 100 % of control
B33: GpH7-A5/GpH7-B3 variant L234_15Y/GpL16-k0 (antibody, human IgG1, kappa)
heavy 1: not shown
heavy 2: not shown
light: B1 light
notes: also called He Ab L234_15Y

He/Con_1a: 102 % of control
B35: GpH7-A5/GpH7-B3 variant P329_02A/GpL16-k0 (antibody, human IgG1, kappa)
heavy 1: not shown
heavy 2: not shown
light: B1 light
notes: also called He Ab P329_02A

He/Con_1a: 104 % of control
B36: GpH7-A5/GpH7-B3 variant K326_14T/GpL16-k0 (antibody, human IgG1, kappa)
heavy 1: not shown
heavy 2: not shown
light: B1 light
notes: also called He Ab K326_14T

He/Con_1a: 103 % of control
B39: GpH7-A5/GpH7-B3 variant K326_16H/GpL16-k0 (antibody, human IgG1, kappa)
heavy 1: not shown
heavy 2: not shown
light: B1 light
notes: also called He Ab K326_16H

He/Con_1a: 101 % of control
B40: GpH7-A5/GpH7-B3 variant L328_19Q/GpL16-k0 (antibody, human IgG1, kappa)
heavy 1: not shown
heavy 2: not shown
light: B1 light
notes: also called He Ab L328_19Q

He/Con_1a: 106 % of control
B41: GpH7-A5/GpH7-B3 variant K334_20W/GpL16-k0 (antibody, human IgG1, kappa)
heavy 1: not shown
heavy 2: not shown
light: B1 light
notes: also called He Ab K334_20W

He/Con_1a: 101 % of control
B45: GpH7-A5/GpH7-B3 variant L234_04F/GpL16-k0 (antibody, human IgG1, kappa)
heavy 1: not shown
heavy 2: not shown
light: B1 light
notes: also called He Ab L234_04F

He/Con_1a: 104 % of control
B46: GpH7-A5/GpH7-B3 variant K334_12R/GpL16-k0 (antibody, human IgG1, kappa)
heavy 1: not shown
heavy 2: not shown
light: B1 light
notes: also called He Ab K334_12R

He/Con_1a: 102 % of control
B47: GpH7-A5/GpH7-B3 variant P271_03V/GpL16-k0 (antibody, human IgG1, kappa)
heavy 1: not shown
heavy 2: not shown
light: B1 light
notes: also called He Ab P271_03V

He/Con_1a: 103 % of control
B49: GpH7-A5/GpH7-B3 variant P271_15Y/GpL16-k0 (antibody, human IgG1, kappa)
heavy 1: not shown
heavy 2: not shown
light: B1 light
notes: also called He Ab P271_15Y

He/Con_1a: 102 % of control
B50: GpH7-A5/GpH7-B3 variant P238_06M/GpL16-k0 (antibody, human IgG1, kappa)
heavy 1: not shown
heavy 2: not shown
light: B1 light
notes: also called He Ab P238_06M

He/Con_1a: 101 % of control
B51: GpH7-A5/GpH7-B3 variant L328_10E/GpL16-k0 (antibody, human IgG1, kappa)
heavy 1: not shown
heavy 2: not shown
light: B1 light
notes: also called He Ab L328_10E

He/Con_1a: 102 % of control
B52: GpH7-A5/GpH7-B3 variant P271_16H/GpL16-k0 (antibody, human IgG1, kappa)
heavy 1: not shown
heavy 2: not shown
light: B1 light
notes: also called He Ab P271_16H
